Experimental data from the RNAGym collection of RNA variant scans (doi:10.7554/elife.90254).

B1: LINE1-full (parent)
chain: UACGUAGGUGGUUUUCCCCUGAUAGUGCUAAGGGGGCCUGGAAGUUUGGACUGGGCAGAGCUCAACACAGCGUGGCAAAGUGGCUGUGGCUAGACUGCCUCUCUGGAUUCCUCGUCACUCAGCAGGGCAUCUCUGAGAGAAAUGCC

Variants of: B1
Assay: self-cleavage, relative activity (ratio to wild type); higher = more cleavage; in vitro, sequencing; the parent is a self-cleaving ribozyme

| Variant | self-cleavage |
| --- | --- |
| U26G U39C | 1 |
| A67G U85A | 0.08 |
| U62C U109A | 0.03 |
| U46C C113U | 1.53 |
| C51U A124U | 2.12 |
| U9A U115A | 1.09 |
| A121U U130C | 1.7 |
| C131G A142G | 0.36 |
| U15A A22G | 0.79 |
| A43U U115A | 1.6 |
| U12A C18G | 1.01 |
| U26C U39A | 1.9 |
| C63A U130C | 0.05 |
| U39C U73C | 2.09 |
| A57U C71U | 0.02 |
| U46A U81C | 1.15 |
| U20C U115A | 1.54 |
| U14A A69G | 2.24 |
| A117U C123U | 0.78 |
| U46C A121C | 1.9 |
| U100A U132A | 0.31 |
| G125A A129G | 1.38 |
| A57C U112C | 0.08 |
| C18A A42G | 1.45 |

| Variant | self-cleavage |
| --- | --- |
| A79U C84A | 0.21 |
| U81C C95U | 0.26 |
| U13C G35U | 0.75 |
| U81G U104C | 0.26 |
| C28A A129G | 1.5 |
| G88A A136G | 0.07 |
| U104A U130C | 1.51 |
| A42U A78G | 0.88 |
| A43U G86U | 0.08 |
| A6U U23C | 1.31 |
| G11A U96C | 0.08 |
| C28A G36A | 1.9 |
| U109A A138G | 0.7 |
| U39C G86A | 0.09 |
| A6G A140G | 0.69 |
| U85C U108C | 0.22 |
| U5C C146U | 0.69 |
| C3A U112C | 1.48 |
| U9A U91C | 0.36 |
| A67G G144A | 0.69 |
| A43G A129G | 1.48 |
| G32C | 1.23 |
| C113U U134C | 0.97 |
| A136G A142C | 1.08 |

| Variant | self-cleavage |
| --- | --- |
| U1C U45A | 0.84 |
| U12A U14A | 0.27 |
| A69G C76U | 0.69 |
| C90G A129G | 0.04 |
| A43G A67C | 0.05 |
| A77U U132C | 1.41 |
| U13C U39A | 1.33 |
| U20A U39C | 0.93 |
| U73C U143C | 2.13 |
| A43C A65U | 0.14 |
| A65U C133U | 0.16 |
| U23C C118U | 1.81 |
| U91C U96A | 0.08 |
| U14A U62C | 0.1 |
| G40A A124G | 0.52 |
| G114A A142G | 1.31 |
| A64C A141U | 0.3 |
| C16U U96C | 0.11 |
| U20C A129U | 1.3 |
| G75A A136G | 1.35 |
| U81A A121U | 1.7 |
| A42G G54U | 1.06 |
| A42G U115C | 1.67 |
| A94G U96A | 0.11 |

| Variant | self-cleavage |
| --- | --- |
| A129G A138U | 2.12 |
| U47C G75A | 1.95 |
| U46C A129G | 2.35 |
| G86U | 0.1 |
| A6G G25A | 0.1 |
| C19U C95U | 0.43 |
| A77U A129U | 1.24 |
| U45C U134G | 1.22 |
| C90U G93U | 0.04 |
| U46C U132A | 2.44 |
| C84G U132C | 0.11 |
| U62C C146U | 0.03 |
| U46G A136U | 1.34 |
| G80A A121C | 2.91 |
| U47C U85A | 0.13 |
| A107G U130G | 1.15 |
| A79G | 1.25 |
| G58U G114A | 0.03 |
| U108C G139A | 0 |
| A30G A141U | 1.06 |
| G32A U132C | 2.03 |
| U5C A42U | 1.04 |
| G32C U81C | 0.55 |
| U26G A141G | 0.97 |

| Variant | self-cleavage |
| --- | --- |
| C28A A141G | 0.61 |
| U102A U143A | 1.08 |
| G88C U132C | 0.09 |
| G32U A77G | 3 |
| U5C G53U | 0.88 |
| G49A A69G | 0.36 |
| U100A A140G | 0.76 |
| A64G G127A | 0.18 |
| A129G A141C | 2.06 |
| U62A G144A | 0.05 |
| A124G A129U | 1.06 |
| A2G U104C | 0.84 |
| U12C U104A | 1.3 |
| U102C A117G | 1.6 |
| A69U A140G | 0.04 |
| A124U C131A | 0.96 |
| A50U U119A | 0.83 |
| A42G A94G | 0.26 |
| U85C C99A | 0.16 |
| U52G C110G | 1.31 |
| U52G G58A | 0.09 |
| G34A A121G | 1.16 |
| U102C A140G | 1.45 |
| G88C G125C | 0.06 |

| Variant | self-cleavage |
| --- | --- |
| U15A G49A | 0.74 |
| G86U U100C | 0.16 |
| U47C G82A | 2.09 |
| U13C G32A | 0.99 |
| U23C A65C | 0 |
| C37U A121G | 1.62 |
| A121G U132A | 1.86 |
| U15C A64U | 0.66 |
| U100C U130A | 1.85 |
| U15A A69G | 0.22 |
| C37G A59G | 0.07 |
| U39A U47A | 0.93 |
| A138U A142C | 2.14 |
| A6U A79G | 0.8 |
| A117G C133U | 2.55 |
| U23A U73A | 1.16 |
| U100A A107G | 0.87 |
| G97A A138G | 0.14 |
| A2C A142G | 1.78 |
| A2G U85C | 0.48 |
| U20A A59U | 0.7 |
| U15A C128U | 0.76 |
| U73C U132A | 1.25 |
| U9C U130C | 1.3 |

| Variant | self-cleavage |
| --- | --- |
| U9C U130A | 1.16 |
| A79C U134A | 1.24 |
| U73A A140U | 1.88 |
| U115C G139U | 1.79 |
| G10A A30G | 1.19 |
| U15A A64U | 0.29 |
| U52A G135C | 1.82 |
| A78U U119C | 2.05 |
| A69U U109G | 0 |
| G33U U143C | 0.61 |
| C3U U100A | 0.68 |
| U23G G122U | 1.17 |
| A79G C120A | 1.39 |
| U52A C99U | 0.64 |
| G75U | 0.62 |
| U47C U104C | 2.24 |
| A30U U102A | 0.58 |
| U20A A65G | 0.11 |
| C110U A142G | 2.11 |
| U29G A107G | 2.23 |
| G75U C90U | 0.03 |
| G21A U29C | 1.04 |
| U20C G74U | 1.46 |
